B2: cytoplasmic region of TNF-RII (receptor, UniProt P20333 288-461, looked up)
chain: KKKPLCLQREAKVPHLPADKARGTQGPEQQHLLITAPSSSSSSLESSASALDRRAPTRNQPQAPGVEASGAGEARASTGSSDSSPGGHGTQVNVTCIVNVCSSSDHSSQCSSQASSTMGDTDSSPSESPKDEQVPFSKEECAFRSQLETPETLLGSTEEKPLPLGVPDAGMKPS
notes: domain: cytoplasmic region
B3: 4F2d2, TTRAP deletion mutant, amino acids 54 to 236 (other)
chain: MERALNSYFEPPVEESALERRPETISEPKTYVDLTNEETTDSTTSKISPSEDTQQENGSMFSLITWNIDGLDLNNLSERARGVCSYLALYSPDVIFLQEVIPPYYSYLKKRSSNYEIITGHEEGYFTAIMLKKSRVKLKSQEIIPFPSTKMMRNLLCVHVNVSGNELCLMTSHLESTRGHAAE
notes: Yeast two-hybrid fusion
B6: 4F2, TTRAP deletion mutant, amino acids 54 to 362 (other)
chain: MERALNSYFEPPVEESALERRPETISEPKTYVDLTNEETTDSTTSKISPSEDTQQENGSMFSLITWNIDGLDLNNLSERARGVCSYLALYSPDVIFLQEVIPPYYSYLKKRSSNYEIITGHEEGYFTAIMLKKSRVKLKSQEIIPFPSTKMMRNLLCVHVNVSGNELCLMTSHLESTRGHAAERMNQLKMVLKKMQEAPESATVIFAGDTNLRDREVTRCGGLPNNIVDVWEFLGKPKHCQYTWDTQMNSNLGITAACKLRFDRIFFRAAAEEGHIIPRSLDLLGLEKLDCGRFPSDHWGLLCNLDIIL
notes: also called longest TTRAP fragment (aa 54-362); TTRAP/4F2
B8: 4F2d3, TTRAP deletion mutant, amino acids 54 to 273 (other)
chain: MERALNSYFEPPVEESALERRPETISEPKTYVDLTNEETTDSTTSKISPSEDTQQENGSMFSLITWNIDGLDLNNLSERARGVCSYLALYSPDVIFLQEVIPPYYSYLKKRSSNYEIITGHEEGYFTAIMLKKSRVKLKSQEIIPFPSTKMMRNLLCVHVNVSGNELCLMTSHLESTRGHAAERMNQLKMVLKKMQEAPESATVIFAGDTNLRDREVTRC
notes: Yeast two-hybrid fusion
B9: TTRAP (TRAF and TNF receptor associated protein), full-length human (other)
chain: MELGSCLEGGREAAEEEGEPEVKKRRLLCVEFASVASCDAAVAQCFLAENDWEMERALNSYFEPPVEESALERRPETISEPKTYVDLTNEETTDSTTSKISPSEDTQQENGSMFSLITWNIDGLDLNNLSERARGVCSYLALYSPDVIFLQEVIPPYYSYLKKRSSNYEIITGHEEGYFTAIMLKKSRVKLKSQEIIPFPSTKMMRNLLCVHVNVSGNELCLMTSHLESTRGHAAERMNQLKMVLKKMQEAPESATVIFAGDTNLRDREVTRCGGLPNNIVDVWEFLGKPKHCQYTWDTQMNSNLGITAACKLRFDRIFFRAAAEEGHIIPRSLDLLGLEKLDCGRFPSDHWGLLCNLDIIL
notes: Protein of 362 amino acids; In the yeast two-hybrid assays it is a fusion expressed from the prey plasmid (pJG45); also called CD40 receptor associated protein

Data set [1] deals with B6. Put plainly: yeast two-hybrid, colour formation on X-gal; '-' = none. How it is done:
(§1) The potential binding of TTRAP to other proteins was assessed using a yeast two-hybrid assay. The experimental outline is similar to the one described for the two-hybrid screening. However, here the plasmids for bait, prey and lacZ reporter were transformed simultaneously into the EGY48 yeast strain. Positive interaction was determined either by the growth phenotype (growth on medium lacking leucine in the presence of galactose, and not in the presence of glucose) or by the blue/white staining on X-gal containing plates (blue colonies only on galactose containing plates, not on glucose containing plates). cDNA's for TRAF2 and for the cytoplasmic regions of CD30, CD40 and TNF-RII were generated by PCR using the pfu polymerase (Promega). PCR fragments encoding RIP, TRADD and FADD were cloned in pCDNA3 (Invitrogen, Carlsbad, Calif.). cDNA of TRAF3 was obtained from the laboratory of Dixit, Dept Pathol., Univ. Michigan Med. School, MI, USA. The color formation was evaluated as strong and fast (++), strong but slow (+), weak and slow (±), none (−) or not determined (nd).

The target of data set [2] is B9. Described as above. How it is done: as §1
The target of data set [3] is B6. Put plainly: yeast two-hybrid, colour formation on X-gal (column = prey, row = bait). The protocol: as §1
Data set [4] deals with B9. Described as above. The protocol:
as §1

Data set [5] addresses B8. Description: yeast two-hybrid, colour formation on X-gal; '-' = none. The protocol:
as §1

For data set [6], the target named is B3. The data set is described as above. The protocol:
as §1

The target of data set [7] is B2. The description is as above. How it is done:
as §1

Data set [8] concerns the molecule itself. Description: yeast two-hybrid, colour formation on X-gal (column = prey, row = bait). The protocol:
as §1

Data set [9] concerns the molecule itself. Put plainly: yeast two-hybrid (in Table I: TTRAP prey with 4F2 bait).

B1: LMP-1 (other)
chain: YYHGQRHSDEHHHDDSLPHPQQATDDSGHESDSNSNEGRHHLLVSGAGDGPPLCSQNLGAPGGGPDNGPQDPDNTDDNGPQDPDNTDDNGPHDPLPQDPDNTDDNGPQDPDNTDDNGPHDPLPHSPSDSAGNDGGPPQLTEEVENKGGDQGPPLMTDGGGGHSHDSGHGGGDPHLPTLLLGSSGSGGDDDDPHGPVQLSYYD
B1: the binding result in [1] and in data set [2] was “no binding” throughout. Take B2: the binding result in data set [3] was “binds”; in data set [4] it was “binds”; in data set [5], “no binding”; in [6], “no binding”.

Turning to B3, the binding result in [1] is listed as “no binding”.

B4: FADD (other, UniProt Q13158 1-208, looked up)
chain: MDPFLVLLHSVSSSLSSSELTELKFLCLGRVGKRKLERVQSGLDLFSMLLEQNDLEPGHTELLRELLASLRRHDLLRRVDDFEAGAAAGAAPGEEDLCAAFNVICDNVGKDWRRLARQLKVSDTKIDSIEDRYPRNLTERVRESLRIWKNTEKENATVAHLVGALRSCQMNLVADLVQEVQQARDLQNRSGAMSPMSWNSDASTSEAS
For the molecule B4, in [2], the binding result was “no binding”.

B5: 4F2d1, TTRAP deletion mutant, amino acids 54 to 140 (other)
chain: MERALNSYFEPPVEESALERRPETISEPKTYVDLTNEETTDSTTSKISPSEDTQQENGSMFSLITWNIDGLDLNNLSERARGVCSYL
notes: Yeast two-hybrid fusion
Regarding B5, the binding result in [1] and in data set [7] was “no binding” in each case. For B6, the binding result in data set [8] and in data set [4] was “binds” throughout.

B7: cytoplasmic region of CD30 (receptor, UniProt P28908 407-595, looked up)
chain: CHRRACRKRIRQKLHLCYPVQTSQPKLELVDSRPRRSSTQLRSGASVTEPVAEERGLMSQPLMETCHSVGAAYLESLPLQDASPAGGPSSPRDLPEPRVSTEHTNNKIEKIYIMKADTVIVGTVKAELPEGRGLAGPAEPELEEELEADHTPHYPEQETEPPLGSCSDVMLSVEEEGKEDPLPTAASGK
notes: domain: cytoplasmic region
B7: the binding result in data set [3] and in data set [4] was “binds” in each case.

As to B8, the binding result in data set [1] is “no binding”. As for B9, the binding result in [9] was “binds”.
